Experimental data taken from PMC9519967.
pKd: −log10 of the molar value.

Biological target: His-tagged Grb3-3 SH2 domain and C-terminal SH3 domain (SH2Δ40CSH3) (human) (UniProt P62993)
Test: MST

Substance | pKd
Sos-C-Tail-8 truncated peptide (without GST) (from UniProt Q07889) | 3.53
Sos-C-Tail-6 truncated peptide (without GST) (from UniProt Q07889) | 3.84
